± gives the uncertainty stated by the source.
B1: CD2-associated protein, residues 109 to 169; numbered along this chain, Q9Y5K6 (parent)
chain: KKRQCKVLFEYIPQNEDELELKVGDIIDINEEVEEGWWSGTLNNKLGLFPSNFVKELEVTD

Variants of: B1
Assay: abundance fitness (aPCA) (normalised: wild type 0, dead -1); higher = more abundant; growth selection in yeast, the domain comes from the species named
Conditions: Homo sapiens

| Variant | abundance fitness |
| --- | --- |
| KKRQCKVLFEYIPQNEDELELKVGDIIDINEEVEEGWWSGTLNNKPGLFPSNFVKELEVTD | -0.196 ± 0.074 |
| KKRQCKVLFEYIPQNEDELELKVGDIIDINEEVEEGWWSGTLNNKQGLFPSNFVKELEVTD | 0.022 ± 0.099 |
| KKRQCKVLFEYIPQNEDELELKVGDIIDINEEVEEGWWSGTLNNKMGLFPSNFVKELEVTD | 0.006 ± 0.1 |
| KKRQCKVLFEYIPQNEDELELKPGDIIDINEEVEEGWWSGTLNNKLGLFPSNFVKELEVTD | -0.08 ± 0.28 |
| KKRQCKVLFEYIPQNEDELELKKGDIIDINEEVEEGWWSGTLNNKLGLFPSNFVKELEVTD | 0.117 ± 0.19 |
| KKRQCKVLFEYIPQNEDELELKGGDIIDINEEVEEGWWSGTLNNKLGLFPSNFVKELEVTD | -0.458 ± 0.2 |
| KKRQCKVLFEYIPQNEDELELKVGDIIDINEEVEEGWWSGTLNNKLGLEPSNFVKELEVTD | -0.872 ± 0.45 |
| KKRQCKVLFEYIPQNEDELELWVGDIIDINEEVEEGWWSGTLNNKLGLFPSNFVKELEVTD | -0.448 ± 0.23 |
| KKRQCKVLFEYIPQNEDELELKVGDIIDINEEVEEGWWSGTLNNELGLFPSNFVKELEVTD | -0.453 ± 0.18 |
| KKRQCKVLFEYIPQNEDELELKVGDIIDINEEVEEGWWSGTLNNFLGLFPSNFVKELEVTD | -0.695 ± 0.22 |
| KKRQCKVLFEYIPQNEDELELKVGDIIDINEEVEEGWWSGTLNNQLGLFPSNFVKELEVTD | 0.04 ± 0.26 |
| KKRQCKVLFEYIPQNEDELELKVGDIIDINEEVEEGWWSGTLNNRLGLFPSNFVKELEVTD | -0.066 ± 0.078 |
| KKRQCKVLFEYIPQNEDELELKVGDIIDINEEVEEGWWSGTLNNILGLFPSNFVKELEVTD | -0.433 ± 0.29 |
| KKRQCKVLFEYIPQNEQELELKVGDIIDINEEVEEGWWSGTLNNKLGLFPSNFVKELEVTD | -0.313 ± 0.36 |
| KKRQCKVLFEYIPQNEDELELKVGDIIDINEEVEEGWWSGTLNNKLGLFPSNYVKELEVTD | 0.019 ± 0.22 |
| KKRQCKVLFEYIPQNEDELELKVGDIIDINEEVEEGWWSGTLNNKLGLFPSNCVKELEVTD | 0.067 ± 0.12 |
| KKRQCKVLFEYIPQNEDELELKVGDIIDINEEVEEGWWSGTLNNKLGLFPSNKVKELEVTD | -0.031 ± 0.15 |
| KKRQCKVLFEYIPQNEDELELKVGDIIDINEEVEEGWWSGTLNNKLGLFPSNQVKELEVTD | -0.2 ± 0.13 |
| KKRQCKVLFEYIPQNEDELELKVGDIIDINEEVEEGWDSGTLNNKLGLFPSNFVKELEVTD | -0.587 ± 0.33 |
| KKRQCKVLFEYIPQNEDELELKVGDIIDINEEVEEGWKSGTLNNKLGLFPSNFVKELEVTD | -0.669 ± 0.2 |
| KKRQCKVLGEYIPQNEDELELKVGDIIDINEEVEEGWWSGTLNNKLGLFPSNFVKELEVTD | -0.294 ± 0.11 |
| KKRQCKVLFEYIPQNEDELELKVGDEIDINEEVEEGWWSGTLNNKLGLFPSNFVKELEVTD | -0.484 ± 0.2 |

| Variant | abundance fitness |
| --- | --- |
| KKRQCKVLFEYIPQNEDELELKVGDGIDINEEVEEGWWSGTLNNKLGLFPSNFVKELEVTD | -1.03 ± 0.25 |
| KKRQCKVLFEYIPQNEDELELKVGDWIDINEEVEEGWWSGTLNNKLGLFPSNFVKELEVTD | -0.442 ± 0.28 |
| KKRQCKVLFEYIPQNEDELELKVGDMIDINEEVEEGWWSGTLNNKLGLFPSNFVKELEVTD | -0.369 ± 0.12 |
| KKRQCKVLFEYIKQNEDELELKVGDIIDINEEVEEGWWSGTLNNKLGLFPSNFVKELEVTD | -0.233 ± 0.25 |
| KKRQCKVLFEYIEQNEDELELKVGDIIDINEEVEEGWWSGTLNNKLGLFPSNFVKELEVTD | -0.747 ± 0.39 |
| KKRQCKVLFEYIMQNEDELELKVGDIIDINEEVEEGWWSGTLNNKLGLFPSNFVKELEVTD | -0.812 ± 0.38 |
| KKRQCKVLFEYIPQNEDELELKVGDIIDINEEVEEGWWSGTLNNKLGLFPANFVKELEVTD | 0.09 ± 0.07 |
| KKRQCKVLFEYIPQNEDELELKVGDIIDINEEVEEGWWSGTLNNKLGLFPDNFVKELEVTD | -0.324 ± 0.24 |
| KKRQCKVLFEYIPQNEDELENKVGDIIDINEEVEEGWWSGTLNNKLGLFPSNFVKELEVTD | -0.355 ± 0.29 |
| KKRQCKVLFEYIPQNEDELEIKVGDIIDINEEVEEGWWSGTLNNKLGLFPSNFVKELEVTD | -0.4 ± 0.16 |
| KRRQCKVLFEYIPQNEDELELKVGDIIDINEEVEEGWWSGTLNNKLGLFPSNFVKELEVTD | -0.334 ± 0.23 |
| KFRQCKVLFEYIPQNEDELELKVGDIIDINEEVEEGWWSGTLNNKLGLFPSNFVKELEVTD | -0.51 ± 0.42 |
| KYRQCKVLFEYIPQNEDELELKVGDIIDINEEVEEGWWSGTLNNKLGLFPSNFVKELEVTD | -0.183 ± 0.41 |
| KKRQCKVLFEYIPQNEDELELKVGDICDINEEVEEGWWSGTLNNKLGLFPSNFVKELEVTD | -0.692 ± 0.32 |
| KKRQCKVLFEYIPQNEDELELKVGDINDINEEVEEGWWSGTLNNKLGLFPSNFVKELEVTD | -0.542 ± 0.45 |
| KKRQCKVLFEYIPQNEDELELKVRDIIDINEEVEEGWWSGTLNNKLGLFPSNFVKELEVTD | -0.735 ± 0.25 |
| KKRQCKVLFEYIPQNEDELELKVGDIIDINEEVEEGWWSGTLNNKLGLFNSNFVKELEVTD | -0.045 ± 0.16 |
| KKRQCKVLFEYIPQNEDELELKVGDIIDINEEVEEGWWSGTLNNKLGLFMSNFVKELEVTD | -0.57 ± 0.21 |
| KKRQPKVLFEYIPQNEDELELKVGDIIDINEEVEEGWWSGTLNNKLGLFPSNFVKELEVTD | -0.945 ± 0.17 |
| FKRQCKVLFEYIPQNEDELELKVGDIIDINEEVEEGWWSGTLNNKLGLFPSNFVKELEVTD | -0.351 ± 0.27 |
| KKRQCKVLFEYIPLNEDELELKVGDIIDINEEVEEGWWSGTLNNKLGLFPSNFVKELEVTD | -0.407 ± 0.23 |

Reference: the Human Domainome abundance scans (Beltran et al. 2025)
